Measured values as given in patent publication US20190127480A1 (Regeneron, published 2019).
Substitutions are numbered along the chain they refer to.

B1: H1H5782P (antibody, human IgG1, V domains shown)
VH: EVQLVESGGGLVQPGRSLRLSCAASGFTFDDYAMHWVRQAPGKGLEWVSGISWNSGSKDYADSVKGRFTISRDNTRNSLFLQMNSLRTEDTALYYCAKDKSGYGSFYYGMDVWGQGTTVTVSS
VL: not shown
notes: H1H: human IgG1 Fc; divalent
B2: H1H5788P (antibody, V domains shown)
VH: EVQLVESGGGLVQPGRSLRLSCAASGFTFDDYTMHWVRQAPGKGLEWVSGISWNSGSIGYADSVKGRFTISRDNAKNSLYLQMNSLRAEDTALFYCAKDQSGYGHYYYGMDVWGQGTTVTVSS
VL: EIVMTQSPATLSVSPGERATLSCRASQSVSSNLAWYQQKPGQAPRLLIYGASTRATDIPARFSGSGSGTEFTLTISSLQSEDFAVYHCQQYNNWPLTFGGGTKVEIK
notes: H1H: human IgG1 Fc; divalent
B3: H1H2712N (antibody, human IgG1, V domains shown)
VH: B2 VH with R16G, S25T, Y32F, A61V, F94Y, Q100N, H105Y
VL: B2 VL with Q27H, S31R, L33S, D57G, V85I, H87Y
notes: H1H: human IgG1 Fc; divalent
B4: H2M2779N (antibody, V domains shown)
VH: B2 VH with R16G, S25T, Y32F, A61V, F94Y, Q100N, H105Y
VL: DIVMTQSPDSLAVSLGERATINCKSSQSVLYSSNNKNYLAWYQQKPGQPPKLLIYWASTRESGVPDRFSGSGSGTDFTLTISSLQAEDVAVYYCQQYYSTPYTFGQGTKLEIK
notes: Hybridoma antibody, human variable regions, mouse IgG2 Fc
B5: H2M2862N (antibody, V domains shown)
VH: QVQLVESGGGVVQPGRSLRLSCAASGFTFRSYGMHWVRQAPGKGLEWVAMIYYDGNNKKYADSVRGRFTISRDNSKNTLYLQMNSLRVEDTAVYFCARGPGYNWLDPWGQGTLVTVSS
VL: B2 VL with S31R, T72I, T74N, V85L, H87Y, N92S, K103E
notes: as for B4
B6: H2M3548N (antibody, V domains shown)
VH: B2 VH with T28K, D30A, T33A, G50E, A61V, F94Y, A97V, Q100K, Y108I, T120I
VL: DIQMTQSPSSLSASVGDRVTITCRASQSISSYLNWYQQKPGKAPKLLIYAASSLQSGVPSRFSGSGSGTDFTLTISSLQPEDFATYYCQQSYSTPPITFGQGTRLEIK
notes: as for B4
B7: H2M2778N (antibody, V domains shown)
VH: EVQLVESGGGLVQPGRSLRLSCAASGFTFDDYSMHWVRQAPGKGLEWVSGISWNSRSIDYADSVKGRFTISRDNAKNSLYLQMNSLRAEDTALYYCVKDNSGYGRYYYYGMDVWGQGTTVSVSS
VL: B2 VL with E1K, S31G, D57S, H87F, Q90H, N92Y, K107R
notes: as for B4
B8: H2M3540N (antibody, V domains shown)
VH: QVHLEESGGGVVQPGRSLRLSCSASGFTFSSYAMHWVRQAPGKGLEWVAVIWYDGTNKYYLDSVKGRFTISRDNSKNTLFLQMNSLRAEDTAVYYCARDRGSIITHWGQGTLVTVSS
VL: DIQMTQSPSSLSASIGDRVTITCRASQNISSYLNWYQQKPGKAPKLLIYAASSLQSGVPSRFSGSGSGTDFTLTISSLQPEDFATYYCQQTYSTPPITFGQGTRLEIK
notes: as for B4
B9: H2M3563N (antibody, V domains shown)
VH: EVHLVESGGGLVQPGRSLRLSCAASGFTFDDYTMHWVRQAPGKGLEWVSDISWNSGSIGYADSVKGRFTVSRDNAKNSLYLQMNSLRGEDTALYYCAKDMSGYGHYGKYGMDVWGQGTTVTVSS
VL: B8 VL with I15V, N28S, S30R, A43V, S76N, E81D, T94N
notes: as for B4
B10: H1H5756B (antibody, human IgG1, V domains shown)
VH: EVQLVESGGGVVQPGRSLRLSCTASGFPFSRYGMHWVRQAPGKGLEWVTFIWYDGSNKYYADSAKGRFTITRDNSKNTVYLQMDSLRADDTAVYYCVRDQAALYYFDSWGQGTLVTVSS
VL: DIQMTQSPSSVSASVGDRVTITCRASQGISRWLAWYQQKPGKAPKLLISAASSLQSGVPSRFSGSGSGTDFTLTISGLQPEDFATYYCQKANSFPFTFGPGTKLEIKR
notes: H1H: human IgG1 Fc; divalent
B11: H1H5755B (antibody, human IgG1, V domains shown)
VH: EVQLVESGGGVVQPGRSLRLSCAASGFTFSNYGMHWVRQAPGKGLEWVTVILHDGSYKYYADSVKGRFTISRDNSKNTLHLQMNSLRTEDTAVYYCAKGPMFRGVPYNHYYGMDVWGQGTTVTVSS
VL: DIQMTQSPSSLSASVGDRVTITCRASQGIRNDLGWYQQKPGKAPKRLIYAASSLQSGVSSRFSGSGSGTEFTLTISSLQPEDFATYYCLQHNSYPYTFGQGTKVEIKR
notes: H1H: human IgG1 Fc; divalent
B12: H1H5757B (antibody, human IgG1, V domains shown)
VH: B11 VH with N31S, Y57N, K58R, Y60S, H80Y, S85I, T88V, A97T, P100A, F102V
VL: B11 VL with S53I, S59P, V104L
notes: H1H: human IgG1 Fc; divalent
B13: H1M3549N (antibody, V domains shown)
VH: B9 VH with H3Q, A23V, T28P, D30A, V70I, G88T, G104A, G107F, K108Y
VL: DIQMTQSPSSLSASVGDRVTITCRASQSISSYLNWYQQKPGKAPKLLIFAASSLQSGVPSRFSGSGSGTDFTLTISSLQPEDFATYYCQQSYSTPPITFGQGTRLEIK
notes: Hybridoma antibody, human variable regions, mouse IgG1 Fc
B14: H2M3543N (antibody, V domains shown)
VH: B9 VH with H3Q, G104A, K108Y
VL: B8 VL with I15V, N28S, S30R, S31N, A43V, T91S, T94N
notes: as for B4
B15: H2M3541N (antibody, V domains shown)
VH: B9 VH with H3Q, Q13R, S57T, V70I, G88P, G104A, G107Y, K108Y
VL: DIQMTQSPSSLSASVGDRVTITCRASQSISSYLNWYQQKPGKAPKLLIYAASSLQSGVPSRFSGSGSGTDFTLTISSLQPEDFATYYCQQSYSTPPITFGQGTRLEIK
notes: as for B4
B16: H1M3613N (antibody, V domains shown)
VH: EVQLVESGGGLVQPGRSLKLSCTASGFTFADYTMHWVRQGPGKGLEWVSDISWNSGSKGYADSVKGRFTISRDNAKNSLYLQMNSLRTEDTALYYCAKDMSGYAHYYYYALDVWGQGTTVTVSS
VL: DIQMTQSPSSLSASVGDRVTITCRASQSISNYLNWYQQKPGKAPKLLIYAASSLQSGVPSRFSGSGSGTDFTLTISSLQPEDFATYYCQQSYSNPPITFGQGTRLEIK
notes: as for B13
B17: H1M3542N (antibody, V domains shown)
VH: B16 VH with K19R, T23V, T28P, G40A, L93F, Y107F, A110G, L111M
VL: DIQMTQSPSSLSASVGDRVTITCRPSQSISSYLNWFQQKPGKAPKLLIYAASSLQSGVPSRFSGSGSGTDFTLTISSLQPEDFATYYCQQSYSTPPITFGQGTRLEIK
notes: as for B13
B18: H2M3547N (antibody, V domains shown)
VH: EAQLVESGGGLVQPGRSLRLSCTTSGFTFDDYTMHWVRQAPGKGLEWISDISWNGGTKGYADSVKGRFTISRDNAKNSLYLQMDSLRGEDTALYYCVKDKSGYGHFYFGLDVWGQGTTVTVSS
VL: DIQMTQSPSSLTASVGDRVTFTCRASQSISRHLSWYQQKPGKAPKLLIYAASSLESGVPSRFSGSGSGTDFTLTISSLHPEDFATYYCQQSYSNPPITFGQGTRLEIK
notes: as for B4
B19: H1H5752P (antibody, human IgG1, V domains shown)
VH: QVQLVESGGGVVQPGRSLRPSCAASGFSFRDYGMHWVRQAPGKGLEWMAHIWYNGKNKYYADSVKGRFTISRDNSKNTLYLQMNSLRPEDTAVYYCARDGVSARGTPFDYWGQGTLVTVSS
VL: ETTLTQSPAFMSAAPGDKVSISCIASQYIDDDVNWYQQKPGETAIFIIQEASTLVPGISPRFSGSGYGTHFTLTINNIDSEDAAFYFCLQHDNFPYTFGQGTKLEIK
notes: H1H: human IgG1 Fc; divalent
B20: H1M3544N (antibody, V domains shown)
VH: EVQLVESGGGLVQPGRSLRLSCAASGFTFDDYTMHWVRQVPGKGLEWVSGISWNSGSLAYADSVKGRFTISRDNAKNSLYLQMNSLHPEDTALYYCVKDGSGYGHYSYYGLDVWGQGTTVTVSS
VL: not shown
notes: as for B13

Tests used:
[1] = molecular target: T1, Soluble heterodimeric CD3 protein (hCD3-epsilon/hCD3-delta) with either a human Fc tag (hFcΔAdp/hFc) or a … (human, UniProt P07766 23-126; P04234 22-105); experiment: SPR Biacore 25C antibody-capture
T1 construct: also called hCD3ε/δ; not shown: Fc tag: human (hFcΔAdp/hFc)
Procedure: (§1) Measurements were conducted on a T200 Biacore™ instrument.
(§2) Soluble heterodimeric CD3 protein (hCD3-epsilon/hCD3-delta; SEQ ID NOs:1652/1653) with either a human Fc tag (hFcΔAdp/hFc; SEQ ID NOs:1683/1684) or a mouse Fc tag (mFcΔAdp/mFc; SEQ ID NOs:1685/1686) was injected over the antibody captured surface and the binding response was recorded. Heterodimeric CD3 protein was purified using the method described in Davis et al. (US2010/0331527).
(§3) Kinetic association (kₐ) and dissociation (kd) rate constants were determined by processing and fitting the data to a 1:1 binding model using Scrubber 2.0 curve fitting software. Binding dissociation equilibrium constants (KD) and dissociative half-lives (t₁₁₂) were calculated from the kinetic rate constants as: KD (M)=kd/kₐ; and t_{1/2} (min)=(ln 2/(60*kd). NT=not tested; NB=no binding observed.

[2] = molecular target: T1, Soluble heterodimeric CD3 protein …; experiment: SPR Biacore 25C antigen-capture
Procedure: as §1
In the antigen-capture format, heterodimeric CD3 protein was captured using a rabbit anti-mouse Fc or mouse anti-human Fc and the respective antibodies were injected over the captured antigen.
as §3

[3] = molecular target: T2, Soluble heterodimeric CD3 protein (hCD3-epsilon/hCD3-delta) with a human Fc tag (hFcΔAdp/hFc) or a mouse Fc … (human, UniProt P07766 23-126; P04234 22-105); experiment: SPR Biacore, 25 C, antibody-capture format
T2 construct: also called hCD3ε/δ; not shown: Fc tag: human (hFcΔAdp/hFc); which tag was used in Ta
Procedure: as §1, §2, §3

T2 sequence (P07766 23-126 limits assumed, stated change not applied, chain 1 of 2): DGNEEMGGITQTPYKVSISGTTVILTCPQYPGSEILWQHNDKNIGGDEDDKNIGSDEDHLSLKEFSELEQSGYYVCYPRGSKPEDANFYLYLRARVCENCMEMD
T2 sequence (P04234 22-105 limits assumed, stated change not applied, chain 2 of 2): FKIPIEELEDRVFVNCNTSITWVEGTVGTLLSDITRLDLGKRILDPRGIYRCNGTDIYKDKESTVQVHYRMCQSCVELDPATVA
T1 sequence (P07766 23-126 limits assumed, stated change not applied, chain 1 of 2): as the sequence (P07766 23-126 limits assumed, stated change not applied, chain 1 of 2) above
T1 sequence (P04234 22-105 limits assumed, stated change not applied, chain 2 of 2): as the sequence (P04234 22-105 limits assumed, stated change not applied, chain 2 of 2) above

Row | Binder | binding result [1] | Kd [2] [nM] | T½ [2] [min] | koff [2] [s⁻¹] | kon [2] [M⁻¹ s⁻¹] | Kd [1] [nM] | T½ [1] [min] | koff [1] [s⁻¹] | kon [1] [M⁻¹ s⁻¹] | Kd [3] [nM] | T½ [3] [min] | koff [3] [s⁻¹] | kon [3] [M⁻¹ s⁻¹]
1 | B1 | no binding | – | – | – | – | – | – | – | – | – | – | – | –
2 | B2 | – | 2.33 | 70 | 0.000164 | 70600 | 101 | 40 | 0.000291 | 2880 | – | – | – | –
3 | B3 | – | 0.971 | 133 | 8.68e-05 | 89300 | 88.2 | 43 | 0.00027 | 3060 | – | – | – | –
4 | B4 | – | – | – | – | – | – | – | – | – | 10.5 | 51 | 0.000228 | 21800
5 | B5 | – | – | – | – | – | – | – | – | – | 80.7 | 4 | 0.003 | 37200
6 | B6 | – | – | – | – | – | – | – | – | – | 130 | 2 | 0.00504 | 38700
7 | B7 | – | – | – | – | – | – | – | – | – | 8.9 | 61 | 0.000189 | 21300
8 | B8 | – | – | – | – | – | – | – | – | – | 16.2 | 19 | 0.000611 | 37700
9 | B9 | – | – | – | – | – | – | – | – | – | 3.66 | 97 | 0.000119 | 32400
10 | B10 | – | 0.767 | 105 | 0.000111 | 144000 | 32.6 | 43 | 0.000266 | 8150 | – | – | – | –
11 | B11 | – | 0.936 | 57 | 0.000201 | 215000 | 57.5 | 24 | 0.000472 | 8210 | – | – | – | –
12 | B12 | – | 1.64 | 39 | 0.000295 | 180000 | 118 | 15 | 0.000785 | 6630 | – | – | – | –
13 | B13 | – | – | – | – | – | – | – | – | – | 77.6 | 13 | 0.000919 | 11800
14 | B14 | – | – | – | – | – | – | – | – | – | 30 | 51 | 0.000226 | 7530
15 | B15 | – | – | – | – | – | – | – | – | – | 189 | 9 | 0.00135 | 7100
16 | B16 | – | – | – | – | – | – | – | – | – | 15.7 | 38 | 0.000304 | 19300
17 | B17 | – | – | – | – | – | – | – | – | – | 21.4 | 23 | 0.000508 | 23700
18 | B18 | – | – | – | – | – | – | – | – | – | 15.9 | 33 | 0.000347 | 21800
19 | B19 | no binding | – | – | – | – | – | – | – | – | – | – | – | –
20 | B20 | – | – | – | – | – | – | – | – | – | – | 82 | – | –
